B1: MiD51Δ1–133 (domain or fragment, mouse, UniProt Q8BGV8 134-463, looked up)
chain: SLQEKLLSYYRNRAAIPAGEQARAKQAAVDICAELRSFLRAKLPDMPLRDMYLSGSLYDDLQVVTADHIQLIVPLVLEQNLWSCIPGEDTIMNVPGFFLVRRENPEYFPRGSSYWDRCVVGGYLSPKTVADTFEKVVAGSINWPAIGSLLDYVIRPAPPPEALTLEVQYEKDKHLVIDFLPSVTLGDTVLVARPHRLAQYDNLWRLSLRPAETARLRALDQADSGCRSLCLKILKAICKSTPALGHLTASQLTNVILHLAQEEADWSPDMLADRFLQALRGLISYLEAGVLPSALNPKVNLFAELTPQEIDELGYTLYCSLSEPEVLLQT
B2: MiD51 H201A mutant (MiD51Δ1–133 H201A) (domain or fragment, mouse, UniProt Q8BGV8 134-463, looked up)
chain: SLQEKLLSYYRNRAAIPAGEQARAKQAAVDICAELRSFLRAKLPDMPLRDMYLSGSLYDDLQVVTADAIQLIVPLVLEQNLWSCIPGEDTIMNVPGFFLVRRENPEYFPRGSSYWDRCVVGGYLSPKTVADTFEKVVAGSINWPAIGSLLDYVIRPAPPPEALTLEVQYEKDKHLVIDFLPSVTLGDTVLVARPHRLAQYDNLWRLSLRPAETARLRALDQADSGCRSLCLKILKAICKSTPALGHLTASQLTNVILHLAQEEADWSPDMLADRFLQALRGLISYLEAGVLPSALNPKVNLFAELTPQEIDELGYTLYCSLSEPEVLLQT

Biological target: the molecule itself
Assay: crystal structure

Row | Protein | stoichiometry N
1 | B1 | 2
2 | B2 | 2

Source: PMC4066849 (Structure (London, England : 1993), 2014)
